Laboratory results published in patent US20230270892A1, “CHELATOR COMPOSITIONS FOR RADIOMETALS AND METHODS OF USING SAME” (TRIUMF INC., priority 2020, published 2023).

Legend:
[1] = in vivo; design: species or system mice; details: mouse, iv, total radioactivity
Description: (§1) At the day of biodistribution mice were injected in the tail vein with ~20 kBq of ^225Accrown-αMSH (range: 10.8-31.6 kBq). […] Blood was collected by cardiac puncture and a full biodistribution performed. Organs were cleaned from blood, weighed and the activity determined using a calibrated gamma counter (Packard Cobra II Auto-gamma counter, Perkin Elmer, Waltham, MA, USA) using three energy windows: 60-120 keV (window A), 180-260 keV (window B), and 400-480 keV (window C). Counting was performed after 6 hours post-sacrifice to ensure equilibrium of the ^225Ac decay chain. Counts were decay corrected from the time of sacrifice and total organ weights were used for the calculation of injected dose per gram of tissue (% ID/g). No differences were noted between the data calculated by three different windows; therefore, the biodistributions are reported using the data acquired using window A. A similar study to Example 5.1 was conducted using ^213Bi instead of ^225Ac.

[2] = system: mice bearing B16F10 tumors; assay: in vivo; details: mouse
Description: as §1

[3] = in vivo; design: species or system mice; details: mouse, iv, total radioactivity; remark: listed apart in the source
Description: as §1, with “A. The biological distribution of ^225Ac-crown-TATE was examined by the inventors following” for “A. A”, “similar protocols as described above for” for “similar study to”, “Example 5.1.” for “Example 5.1 was conducted using ^213Bi instead of ^225Ac.”

[4] = Stability of ^225Ac-labelled crown complex left at ambient temperature; assay type: physicochemical; details: up to 5 days and up to 8 days in a second experiment
Description: The reaction was largely complete after 10 min. […] To obtain the data shown in FIG. 14, labeling with crown was conducted at room temperature for a period of 15 minutes, while labelling with DOTA was conducted at 90° C. for a period of 15 minutes.

Compound CCCC[C@H](NC(=O)CN1CCC(NC(=O)CN2CCOCCN(CC(=O)O)CCN(CC(=O)O)CCOCCN(CC(=O)O)CC2)CC1)C(=O)N[C@H]1CC(=O)NCCCC[C@@H](C(N)=O)NC(=O)[C@H](Cc2c[nH]c3ccccc23)NC(=O)[C@H](CCCNC(=N)N)NC(=O)[C@@H](Cc2ccccc2)NC(=O)[C@H](Cc2c[nH]cn2)NC1=O [^213Bi-crown-αMSH, metal not drawn] has a tissue uptake at 1 h ([1]; Biodistribution: Bladder) of 5.48 %ID/g, a tissue uptake at 1 h ([1]; Biodistribution: Blood) of 0.5 %ID/g and a tissue uptake at 1 h ([1]; Biodistribution: Bone) of 0.41 %ID/g. The excreta dose per gram or mL at 1 h ([1]; Biodistribution: Feces) was 0.23 %ID/g, the tissue uptake at 1 h ([1]; Biodistribution: Heart) was 0.09 %ID/g and the tissue uptake at 1 h ([1]; Biodistribution: Kidneys) was 6.02 %ID/g. The tissue uptake at 1 h ([1]; Biodistribution: Lg Intestine) was 0.56 %ID/g, the tissue uptake at 1 h ([1]; Biodistribution: Liver) was 1.09 %ID/g and the tissue uptake at 1 h ([1]; Biodistribution: Lungs) was 0.45 %ID/g. It also gave a tissue uptake at 1 h ([1]; Biodistribution: Muscle) of 0.08 %ID/g, a tissue uptake at 1 h ([1]; Biodistribution: Pancreas) of 0.15 %ID/g and a tissue uptake at 1 h ([1]; Biodistribution: Sm Intestine) of 0.34 %ID/g. The tissue uptake at 1 h ([1]; Biodistribution: Spleen) was 0.36 %ID/g, the tissue uptake at 1 h ([1]; Biodistribution: Stomach) was 0.67 %ID/g and the tissue uptake at 1 h ([1]; Biodistribution: Tail) was 2.56 %ID/g. It also gave a tissue uptake at 1 h ([1]; Biodistribution: Thyroids) of 0.74 %ID/g, a tissue uptake at 1 h ([1]; Biodistribution: Tumour) of 5.9 %ID/g and an excreta dose per gram or mL at 1 h ([1]; Biodistribution: Urine) of 93.2 %ID/g. For the same compound, the “T/Blood (ratio tumor versus blood)” value [2] was 12.15, the “T/Bone (ratio tumor versus bone)” value [2] was 23.41 and the “T/Kidney (ratio tumor versus kidney)” value [2] was 0.99. The “T/Liver (ratio tumor versus liver)” value [2] was 5.44 and the “T/Muscle (ratio tumor versus muscle)” value [2] was 84.48.

For C[C@@H](O)[C@H](NC(=O)[C@@H]1CSSC[C@H](NC(=O)[C@@H](Cc2ccccc2)NC(=O)CN2CCOCCN(CC(=O)O)CCN(CC(=O)O)CCOCCN(CC(=O)O)CC2)C(=O)N[C@@H](Cc2ccc(O)cc2)C(=O)N[C@H](Cc2c[nH]c3ccccc23)C(=O)N[C@@H](CCCCN)C(=O)N[C@@H]([C@@H](C)O)C(=O)N1)C(=O)O [^225Ac-crown-TATE, metal not drawn], the tissue uptake at 1 h ([3]; Biodistribution: Andrenals) was 1.34 %ID/g, the tissue uptake at 4 h ([3]; Biodistribution: Andrenals) was 1.37 %ID/g and the tissue uptake at 24 h ([3]; Biodistribution: Andrenals) was 1.77 %ID/g. It also gave a tissue uptake at 72 h ([3]; Biodistribution: Andrenals) of 1.37 %ID/g, a tissue uptake at 1 h ([3]; Biodistribution: Bladder) of 7.09 %ID/g and a tissue uptake at 4 h ([3]; Biodistribution: Bladder) of 1.04 %ID/g. It also gave a tissue uptake at 24 h ([3]; Biodistribution: Bladder) of 0.33 %ID/g, a tissue uptake at 72 h ([3]; Biodistribution: Bladder) of 0.37 %ID/g and a tissue uptake at 1 h ([3]; Biodistribution: Blood) of 0.54 %ID/g. The tissue uptake at 4 h ([3]; Biodistribution: Blood) was 0.09 %ID/g, the tissue uptake at 24 h ([3]; Biodistribution: Blood) was 0.03 %ID/g and the tissue uptake at 72 h ([3]; Biodistribution: Blood) was 0.02 %ID/g. For the same compound, the tissue uptake at 1 h ([3]; Biodistribution: Bone) was 0.35 %ID/g, the tissue uptake at 4 h ([3]; Biodistribution: Bone) was 0.78 %ID/g and the tissue uptake at 24 h ([3]; Biodistribution: Bone) was 0.38 %ID/g. It also gave a tissue uptake at 72 h ([3]; Biodistribution: Bone) of 0.78 %ID/g, a tissue uptake at 1 h ([3]; Biodistribution: Brain) of 0.03 %ID/g and a tissue uptake at 4 h ([3]; Biodistribution: Brain) of 0.01 %ID/g. It also gave a tissue uptake at 24 h ([3]; Biodistribution: Brain) of 0.01 %ID/g, a tissue uptake at 72 h ([3]; Biodistribution: Brain) of 0.01 %ID/g and an excreta dose per gram or mL at 1 h ([3]; Biodistribution: Feces) of 0.22 %ID/g. The excreta dose per gram or mL at 4 h ([3]; Biodistribution: Feces) was 0.27 %ID/g, the excreta dose per gram or mL at 24 h ([3]; Biodistribution: Feces) was 0.53 %ID/g and the excreta dose per gram or mL at 72 h ([3]; Biodistribution: Feces) was 0.26 %ID/g. For the same compound, the tissue uptake at 1 h ([3]; Biodistribution: Gallbladder) was 0.68 %ID/g, the tissue uptake at 4 h ([3]; Biodistribution: Gallbladder) was 0.52 %ID/g and the tissue uptake at 24 h ([3]; Biodistribution: Gallbladder) was 0.99 %ID/g. The tissue uptake at 72 h ([3]; Biodistribution: Gallbladder) was 1.25 %ID/g, the tissue uptake at 1 h ([3]; Biodistribution: Heart) was 0.32 %ID/g and the tissue uptake at 4 h ([3]; Biodistribution: Heart) was 0.15 %ID/g. It also gave a tissue uptake at 24 h ([3]; Biodistribution: Heart) of 0.18 %ID/g, a tissue uptake at 72 h ([3]; Biodistribution: Heart) of 0.19 %ID/g and a tissue uptake at 1 h ([3]; Biodistribution: Kidneys) of 20 %ID/g. It also gave a tissue uptake at 4 h ([3]; Biodistribution: Kidneys) of 20.7 %ID/g, a tissue uptake at 24 h ([3]; Biodistribution: Kidneys) of 11.5 %ID/g and a tissue uptake at 72 h ([3]; Biodistribution: Kidneys) of 7.09 %ID/g. It also gave a tissue uptake at 1 h ([3]; Biodistribution: Lg Intestine) of 1.55 %ID/g, a tissue uptake at 4 h ([3]; Biodistribution: Lg Intestine) of 1.58 %ID/g and a tissue uptake at 24 h ([3]; Biodistribution: Lg Intestine) of 1.31 %ID/g. For the same compound, the tissue uptake at 72 h ([3]; Biodistribution: Lg Intestine) was 1.02 %ID/g, the tissue uptake at 1 h ([3]; Biodistribution: Liver) was 1.38 %ID/g and the tissue uptake at 4 h ([3]; Biodistribution: Liver) was 1 %ID/g. For the same compound, the tissue uptake at 24 h ([3]; Biodistribution: Liver) was 1.77 %ID/g, the tissue uptake at 72 h ([3]; Biodistribution: Liver) was 2.43 %ID/g and the tissue uptake at 1 h ([3]; Biodistribution: Lungs) was 3.4 %ID/g. It also gave a tissue uptake at 4 h ([3]; Biodistribution: Lungs) of 3.37 %ID/g, a tissue uptake at 24 h ([3]; Biodistribution: Lungs) of 2.31 %ID/g and a tissue uptake at 72 h ([3]; Biodistribution: Lungs) of 2 %ID/g. The tissue uptake at 1 h ([3]; Biodistribution: Muscle) was 0.1 %ID/g, the tissue uptake at 4 h ([3]; Biodistribution: Muscle) was 0.02 %ID/g and the tissue uptake at 24 h ([3]; Biodistribution: Muscle) was 0.02 %ID/g. For the same compound, the tissue uptake at 72 h ([3]; Biodistribution: Muscle) was 0.04 %ID/g, the tissue uptake at 1 h ([3]; Biodistribution: Pancreas) was 4.39 %ID/g and the tissue uptake at 4 h ([3]; Biodistribution: Pancreas) was 3.24 %ID/g. It also gave a tissue uptake at 24 h ([3]; Biodistribution: Pancreas) of 1.22 %ID/g, a tissue uptake at 72 h ([3]; Biodistribution: Pancreas) of 1.07 %ID/g and a tissue uptake at 1 h ([3]; Biodistribution: Sm Intestine) of 0.88 %ID/g. The tissue uptake at 4 h ([3]; Biodistribution: Sm Intestine) was 0.74 %ID/g, the tissue uptake at 24 h ([3]; Biodistribution: Sm Intestine) was 0.51 %ID/g and the tissue uptake at 72 h ([3]; Biodistribution: Sm Intestine) was 0.49 %ID/g. It also gave a tissue uptake at 1 h ([3]; Biodistribution: Spleen) of 0.48 %ID/g, a tissue uptake at 4 h ([3]; Biodistribution: Spleen) of 0.36 %ID/g and a tissue uptake at 24 h ([3]; Biodistribution: Spleen) of 0.23 %ID/g. For the same compound, the tissue uptake at 72 h ([3]; Biodistribution: Spleen) was 0.35 %ID/g, the tissue uptake at 1 h ([3]; Biodistribution: Stomach) was 5.04 %ID/g and the tissue uptake at 4 h ([3]; Biodistribution: Stomach) was 3.7 %ID/g. For the same compound, the tissue uptake at 24 h ([3]; Biodistribution: Stomach) was 2.75 %ID/g, the tissue uptake at 72 h ([3]; Biodistribution: Stomach) was 2.25 %ID/g and the tissue uptake at 1 h ([3]; Biodistribution: Tail) was 1.56 %ID/g. It also gave a tissue uptake at 4 h ([3]; Biodistribution: Tail) of 0.42 %ID/g, a tissue uptake at 24 h ([3]; Biodistribution: Tail) of 0.35 %ID/g and a tissue uptake at 72 h ([3]; Biodistribution: Tail) of 0.34 %ID/g. The tissue uptake at 1 h ([3]; Biodistribution: Tumour) was 5.86 %ID/g, the tissue uptake at 4 h ([3]; Biodistribution: Tumour) was 5.15 %ID/g and the tissue uptake at 24 h ([3]; Biodistribution: Tumour) was 5.7 %ID/g. It also gave a tissue uptake at 72 h ([3]; Biodistribution: Tumour) of 4.97 %ID/g, an excreta dose per gram or mL at 1 h ([3]; Biodistribution: Urine) of 108 %ID/g and an excreta dose per gram or mL at 4 h ([3]; Biodistribution: Urine) of 13.2 %ID/g. It also gave an excreta dose per gram or mL at 24 h ([3]; Biodistribution: Urine) of 0.87 %ID/g and an excreta dose per gram or mL at 72 h ([3]; Biodistribution: Urine) of 0.2 %ID/g.

With O=C(O)CN1CCOCCN(CC(=O)O)CCN(CC(=O)O)CCOCCN(CC(=O)O)CC1 [crown, 2,2’,2”,2’”-(1,10-dioxa-4,7,13,16-tetraazacyclooctadecane-4,7,13,16-tetrayl)tetraacetic acid] the “free ^225Ac observed” value [4] was < 2%.
